Results as given in article PMC4174574.
pIC50: −log10 of the molar value.

Target: Mcl-1 (myeloid cell leukemia-1), recombinant protein (UniProt Q07820)
Experiment: SPR

pIC50: 7.21
Substance: Noxa BH3 peptide
